Reference: US20260242436A1 (HANMI PHARM, published 2026)

T1: interleukin-2 beta receptor (SYMANSIS, #4122H) to which a human immunoglobulin Fc region was linked (UniProt P14784 27-239, limits assumed)
T1 construct: Bought receptor-Fc, captured on anti-human immunoglobulin antibody; also called IL-2Rβ; CD122; not shown: human immunoglobulin Fc region
T1 sequence (looked up): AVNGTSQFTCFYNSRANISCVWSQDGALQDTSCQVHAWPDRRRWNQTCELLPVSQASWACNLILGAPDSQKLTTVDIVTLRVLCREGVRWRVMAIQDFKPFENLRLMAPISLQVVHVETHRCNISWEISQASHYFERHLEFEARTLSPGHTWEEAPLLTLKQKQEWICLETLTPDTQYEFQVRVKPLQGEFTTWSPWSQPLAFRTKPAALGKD

T2: interleukin-2 alpha receptor (SYMANSIS, #4102H) to which a human immunoglobulin Fc region was linked (UniProt P01589 22-213, limits assumed)
T2 construct: Bought receptor-Fc, captured on anti-human immunoglobulin antibody; also called IL-2Rα; CD25; not shown: human immunoglobulin Fc region
T2 sequence (looked up): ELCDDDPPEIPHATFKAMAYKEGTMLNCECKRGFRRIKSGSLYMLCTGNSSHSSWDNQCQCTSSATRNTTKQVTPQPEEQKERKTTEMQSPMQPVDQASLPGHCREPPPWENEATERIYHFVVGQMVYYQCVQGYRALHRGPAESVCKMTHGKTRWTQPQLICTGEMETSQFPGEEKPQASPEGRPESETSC


Legend:
[1] = target: T1, interleukin-2 beta receptor (SYMANSIS, …); assay: SPR (Biacore T200); receptor-Fc captured on anti-human Ig CM5 chip, analog flowed; relative to analog 1 = 100%
Method: (§1) In order to measure the binding affinities of the interleukin-2 analogs obtained in Example 4 for each of interleukin-2 alpha and beta receptors, surface plasmon resonance (SPR, BIACORE T200, GE Healthcare) was used. The binding affinities of the prepared analogs for the alpha and beta receptors were measured, and the binding affinity of each of the prepared analogs was compared with that of interleukin-2 analog 1 (aldesleukin).
(§2) First, an anti-human immunoglobulin antibody (Abcam, #ab97221) was immobilized to a CM5 chip (GE healthcare) to about 5,000 resonance unit (RU) through amine coupling, and then the interleukin-2 alpha receptor ([…], #4102H) or interleukin-2 beta receptor ([…], #4122H), to each of which a human immunoglobulin Fc region was linked, was bound to the immunoglobulin antibody using an antigen-antibody binding reaction and thus finally immobilized. Thereafter, the recombinant interleukin-2 analog prepared above was diluted with HBS-P+ buffer (Cytiva, BR100671) to various concentrations by serial dilution, and the diluted samples were allowed to flow through CM5 chips, to which the interleukin-2 receptors were finally immobilized, to measure the binding affinity of each interleukin-2 receptor. […] Upon the completion of the measurement, the binding affinity of the receptor was evaluated according to the 1:1 binding fitting model in the Biaevaluation program.

[2] = target: T2, interleukin-2 alpha receptor (SYMANSIS, …); assay: as above
Method: as §1, §2

Relative binding affinity (%) [1] | Relative binding affinity (%) [2] | Binder
12800% | 98.4% | interleukin-2 analog 90 (ligand) PTSSSTKKTQLQLEHLLLDLQMILNGINNYKNPKLTRMLTWKFYMPKKATELKHLQCLEEELKPLEEVLNLAQSKNFHFEPRDVVSNINVFVLELKGSETTFMCEYADETATIVEFLNRWITFSQSIISTLT
1040% |  | interleukin-2 analog 76 (ligand) PTSSSTKKTQLQLEHLLLDLQMILNGINNYKNPKLTAMLTKQFYMPKKATELKHLQCLERELKPLEEVLNLAQSKNFHFDPRDVGSNINVFVLELKGSETTFMCEYADETATIVEFLNRWITFSQSIISTLT
711% |  | interleukin-2 analog 84 (ligand) PTSSSTKKTQLQLEHLRLDLEMILNGINNYKNPKLTRMLTFKFYMPKKATELKHLQCLEEELKPLEEVLNLAQSKNFHVDPRDEVSNINVFVLELKGSETTFMCEYADETATIVEFLNRWITFSQSIISTLT
8150% |  | interleukin-2 analog 74 (ligand) PTSSSTKKTQLQLEHLLLDLQMILNGINNYKNPKLTDMLTKKFYMPKKATELKHLQCLEEELKPLEEVLNLAQSKNFHYDPRDVVSNINVFVLELKGSETTFMCEYADETATIVEFLNRWITFSQSIISTLT
18700% | 71.1% | interleukin-2 analog 86 (ligand) PTSSSTKKTQLQLEHLRLDLEMILNGINNYKNPKLTRMLTFKFYMPKKATELKHLQCLEEELKPLEEVLNLAQSKNFHFEPRDVVSNINVFVLELKGSETTFMCEYADETATIVEFLNRWITFSQSIISTLT
9570% |  | interleukin-2 analog 75 (ligand) PTSSSTKKTQLQLEHLLLDLQMILNGINNYKNPKLTAMLTKKFAMPKKATELKHLQCLEEELKPLEEVLNLAQSKNFHFEPRDVVSNINVFVLELKGSETTFMCEYADETATIVEFLNRWITFSQSIISTLT
644% |  | interleukin-2 analog 77 (ligand) PTSSSTKKTQLQLEHLLLDLQMILNGINNYKNPKLTAMLTKEFYMPKKATELKHLQCLERELKPLEEVLNLAQSKNFHFDPRDWVSNINVFVLELKGSETTFMCEYADETATIVEFLNRWITFSQSIISTLT
35.5% |  | interleukin-2 analog 94 (ligand) PTSSSTKKTQLQLEHLLLDLQMILNGINNYKNPKLTRMLTFKFYMPKKATELKHLQCLEEELKPLEEVLNLAQSKNFHFEPRDVVSNINVFVFEFKGSETTFMCEYADETATIVEFLNRWITFSQSIISTLT

Second part, the binder before the results:

Binder | Relative binding affinity (%) [1] | Relative binding affinity (%) [2]
interleukin-2 analog 71 (ligand) PTSSSTKKTQLQLEHLLLDLQMILNGINNYKNPKLTAMLTKKFYMPKKATELKHLQCLEEELKPLEEVLNLAQSKNFHFEPRDVVSNINVFVLELKGSETTFMCEYADETATIVEFLNRWITFSQSIISTLT | 17100% | 
interleukin-2 analog 70 (ligand) PTSSSTKKTQLQLEHLLLDLQMILNGINNYKNPKLTAMLTKKFYMPKKATELKHLQCLEEELKPLEEVLNLAQSKNFHYDPRDVVSNINVFVLELKGSETTFMCEYADETATIVEFLNRWITFSQSIISTLT | 10200% | 
interleukin-2 analog 16 (ligand) PTSSSTKKTQLQLEHLLLDLQMILNGINNYKNPKLTAMLTKKFYMPKKATELKHLQCLEEELKPLEEVLNLAQSKNFHLRPRDLISQINVIVLELKGSETTFMCEYADETATIVEFLNRWITFSQSIISTLT | 1260% | 0.2%
interleukin-2 analog 58 (ligand) PTSSSTKKTQLQLEHLLLDLQMILNGINNYKNPKLTAMLTKKFYMPKKATELKHLQCLEEELKPLEEVLNLAQSKNFHFDPRDAASNINVFVLELKGSETTFMCEYADETATIVEFLNRWITFSQSIISTLT | 7770% | 
interleukin-2 analog 61 (ligand) PTSSSTKKTQLQLEHLLLDLQMILNGINNYKNPKLTAMLTKKFYMPKKATELKHLQCLEEELKPLEEVLNLAQSKNFHYDPRDGVSNINVYVLELKGSETTFMCEYADETATIVEFLNRWITFSQSIISTLT | 1040% | 
interleukin-2 analog 57 (ligand) PTSSSTKKTQLQLEHLLLDLQMILNGINNYKNPKLTAMLTKKFAMPKKATELKHLQCLEEELKPLEEVLNLAHSKNFHFDPRDLISNINVFVLELKGSETTFMCEYADETATIVEFLNRWITFSQSIISTLT | 2570% | 
interleukin-2 analog 13 (ligand) PTSSSTKKTQLQLEHLLLDLQMILNGINNYKNPKLTAMLTAKFYMPKKATELKHLQCLEEELKPLEEVLNLAQSKNFHLRPRDLISNINVIVLELKGSETTFMCEYADETATIVEFLNRWITFSQSIISTLT | 149% | 1.1%
interleukin-2 analog 25 (ligand) PTSSSTKKTQLQLEHLLFDLQMILNGINNYKNPKLTAMLTKKFYMPKKATELKHLQCLEEELKPLEEVLNLAQSKNFHLRPRDLISNINVIVLELKGSETTFMCEYADETATIVEFLNRWITFSQSIISTLT | 21.7% | 
interleukin-2 analog 31 (ligand) PTSSSTKKTQLQLEHLLLDLQMILNGINNYKNPKLTAMLTFKFYMPKKATELKHLQCLEEELKPLEEVLNLAQSKNFHLRPRELISNINVIVLELKGSETTFMCEYADETATIVEFLNRWITFSQSIISTLT | 236% | 5%
interleukin-2 analog 18 (ligand) PTSSSTKKTQLQLEHLLLDLQMILNGINNYKNPKLTAMLTKKFYMPKKATELKHLQCLEQELKPLEEVLNLAQSKNFHLRPRDLISNINVIVLELKGSETTFMCEYADETATIVEFLNRWITFSQSIISTLT | 35.3% | 
interleukin-2 analog 59 (ligand) PTSSSTKKTQLQLEHLLLDLQMILNGINNYKNPKLTAMLTKKFYMPKKATELKHLQCLEEELKPLEEVLNLAQSKNFHFDPRDAASNINVYVLELKGSETTFMCEYADETATIVEFLNRWITFSQSIISTLT | 1530% | 
interleukin-2 analog 73 (ligand) PTSSSTKKTQLQLEHLLLDLQMILNGINNYKNPKLTAMLTKKFYMPKKATELKHLQCLEEELKPLEEVLNLAQSKNFHFDPRDWVSNINVFVLELKGSETTFMCEYADETATIVEFLNRWITFSQSIISTLT | 1590% | 
interleukin-2 analog 14 (ligand) PTSSSTKKTQLQLEHLLYDLQMILNGINNYKNPKLTAMLTKKFYMPKKATELKHLQCLEEELKPLEEVLNLAQSKNFHLRPRDLISNINVIVLELKGSETTFMCEYADETATIVEFLNRWITFSQSIISTLT | 130% | 
interleukin-2 analog 24 (ligand) PTSSSTKKTQLQLEHLLVDLQMILNGINNYKNPKLTAMLTKKFYMPKKATELKHLQCLEEELKPLEEVLNLAQSKNFHLRPRDLISNINVIVLELKGSETTFMCEYADETATIVEFLNRWITFSQSIISTLT | 37.9% | 
interleukin-2 analog 34 (ligand) PTSSSTKKTQLQLEHLLLDLQMILNGINNYKNPKLTAMLTFKFYMPKKATELKHLQCLEEELKPLEEVLNLAQSKNFHFRPRELISNINVIVLELKGSETTFMCEYADETATIVEFLNRWITFSQSIISTLT | 322% | 9.4%
interleukin-2 analog 41 (ligand) PTSSSTKKTQLQLEHLLLDLQMILNGINNYKNPKLTRMLTFKFYMPKKATELKHLQCLEEELKPLEEVLNLAQSKNFHFDPRDVVSNINVFVLELKGSETTFMCEYADETATIVEFLNRWITFSQSIISTLT | 22800% | 121%
interleukin-2 analog 55 (ligand) PTSSSTKKTQLQLEHLLLDLQMILNGINNYKNPKLTAMLTKKFYMPKKATELKHLQCLEEELKPLEEVLNLAHSKNFHFDPRDLISNINVFVLELKGSETTFMCEYADETATIVEFLNRWITFSQSIISTLT | 3030% | 
